Assay results reported in publication PMC6126647.

Target: MmCPDII (class II CPD photolyase) (UniProt Q8PYK9 1-464)
Assay: X-ray crystallography (2.7 A); oxidized FAD; dark, unrepaired CPD; Co-crystallization: protein in 10 mM Tris-HCl pH 8.0, 100 mM NaCl with 1.25x dsDNA (in 100 mM Tris-HCl pH 8.0, 100 mM NaCl), 30 min in dark; mixed 1:1 with 0.1

B1: 14-mer duplex with natural phosphodiester-linked cis-syn CPD (PDM DNA) (dsDNA)
DNA 1: ATCGGCTTCGCGCA
DNA 2: TGCGCGAAGCCGAT
modifications: cis-syn cyclobutane thymine dimer T7<>T8 in strand 1, natural intra-lesion phosphodiester
B1: binds.
